{
  "source": "patent US9512428B2",
  "about": "“Method of deriving mature hepatocytes from human embryonic stem cells” (Wisconsin Alumni Research Foundation, priority 2012, dated 2016)",
  "molecules": {"B1": {"name": "mir-122: human microRNA mir-122 (pre-miRNA SEQ ID NO:1, mature SEQ ID NO:2); coding DNA transferred by lentiviral vector (nucleic acid, listed as Homo sapiens)", "chain 1": "CCUUAGCAGAGCUGUGGAGUGUGACAAUGGUGUUUGUGUCUAAACUAUCAAACGCCAUUAUCACACUAAAUAGCUACUGCUAGGC", "chain 2": "UGGAGUGUGACAAUGGUGUUUG"}, "B2": {"name": "let-7c: human microRNA let-7c (pre-miRNA SEQ ID NO:3, mature SEQ ID NO:4); coding DNA transferred by lentiviral vector pEZX-MR03 (nucleic acid, listed as Homo sapiens)", "chain 1": "GCAUCCGGGUUGAGGUAGUAGGUUGUAUGGUUUAGAGUUACACCCUGGGAGUUAACUGUACAACCUUCUAGCUUUCCUUGGAGC", "chain 2": "UGAGGUAGUAGGUUGUAUGGUU"}},
  "key": {"[1]": {"tested_on": "CYP1A2", "experiment": "CYP1A2 induction by omeprazole in transduced hESC-derived hepatocytes (quantitative PCR)", "format": "in vitro ADME, human", "description": "Induction of this enzyme was also measured in HepG2 human hepatocytes and in fresh primary human hepatocytes. Expression was measured by quantitative PCR, and the expression levels are shown as GAPDH normalized gene expression values (RQ values or relative quantity values. Error bars indicate RQ min and RQ max values).\n(RQ values or relative quantity values. Error bars indicate RQ min and RQ max values).\nOmeprazole and rifampicin (also known as rifampin; Sigma) were added to DMEM at 100 μM and 10 μM respectively for 3 days. The resulting medium was analyzed by mass spectrometry. Metabolites of the tested drugs, omeprazole sulfone (Santa Cruz Biotechnology), 5-hydroxy omeprazole (Cachesyn), and desacetyl rifampicin (Santa Cruz Biotechnology) were dissolved in DMEM to prepare standard curves."}, "[2]": {"tested_on": "hESC derived hepatocytes", "experiment": "Rifampin metabolism to 25-des acetyl rifampin in hESC derived hepatocytes (LC-MS/MS)", "conditions": "hESC derived hepatocytes co-transduced with let-7c and mir-122, 72 hours incubation"}, "[3]": {"tested_on": "hES cell-derived fetal hepatocytes", "experiment": "QPCR of liver genes in hES cell-derived fetal hepatocytes after lentiviral transduction of mir-122", "format": "cell-based, human", "excerpt": "We next determined whether forced expression of mir-122 in the hES cell-derived fetal hepatocytes could program these cells to a more mature differentiated state. We expressed mir-122 in the fetal hepatocytes by lentiviral transduction. Using this method, we achieved ˜5% transduction efficiency (see FIG. 2 GFP positive cells).\nThese GFP positive cells were then FACS sorted, and RNA was isolated for QPCR measurements of functional genes.\nH1 hES cells (J. A. Thomson et al., Science (1998) 282: 1145-1147) cultured in E8 medium (Chen et al., 2011 Nature Methods 8(5) 424-9) were differentiated to fetal hepatocytes lacking functional hepatic enzyme activity following a previously published protocol (see J. Cai et al., Hepatology (2007) 45: 1229-1239), with some modifications. Briefly, the hES cells at approximately 50% confluency were treated with 0.5 mg/ml Albumin fraction V (Sigma) and 100 ng/ml Activin A (Sigma) for 3 days. On the second day of treatment, 0.1% Insulin-transferrin-Selenium (Sigma) was added, and on the third day of treatment, 1.0% Insulin-transferrin-Selenium (Sigma) was added. From day four to day eight, the cells were treated with 30 ng/ml FGF4 (R&D Systems) along with 20 ng/ml BMP2. From days nine through thirteen, 20 ng/ml HGF (R&D Systems) were added to the medium, and finally, the cells were treated for five days with 10 ng/ml Oncostatin M (R&D Systems) and 0.1 μM Dexamethasone (Sigma). Throughout differentiation, hepatocyte growth medium (Promocell) was used as a base medium and cells were kept on Matrigel™ coated plates. […] hepatocytes were obtained for comparison studies (Celsis).\nMir-122 was transduced into the hES derived cells having hepatocyte morphology by a lentiviral vector pEZX-MR01 (Genecoepoeia). Approximately ˜5% of cells were transduced, as measured by GFP expression.\nIn this example, we performed a QRT PCR comparison of the gene expression levels of the mature hepatocytes produced from human embryonic stem cells according to the procedure outlined in Example 1 (ES hepatocyte expressing mir-122), the expression levels for the same proteins in human primary hepatocytes (Human hepatocyte), the expression levels for the same proteins in the fetal hepatocytes before transduction (ES hepatocyte), and the expression levels for the same proteins in HepG2 cells."}, "[4]": {"tested_on": "primary human hepatocytes", "experiment": "Functional gene expression over time in primary human hepatocytes transduced with mir-122 (QPCR)", "format": "cell-based", "description": "FIGS. 6A through 6E are a bar graphs showing that lentivirus mediated DNA transfer to primary hepatocytes derived directly from liver tissue results in improved hepatic protein expression over time, as compared to control primary hepatocytes. Expression is shown for albumin (FIG. 6A), tyrosine aminotransferase (TAT) (FIG. 6B), and the CYP 450 enzymes CYP1A2 (FIG. 6C), CYP3A4 (FIG. 6D) and CYP7A1 (FIG. 6E). Expression was measured by quantitative PCR, and the reported values were normalized by GAPDH expression (RQ or relative quantity values, error bars representing standard error, RQ min and RQ max). Expression values are shown for each gene at the time the culture was established (0 day) and 9, 13 or 19 days later.\nWe cultured primary human hepatocytes (both control hepatocytes and hepatocytes into which vectors were transferred to express mir-122). Mir-122 was transduced into these primary hepatocytes using the lentiviral vector PEZX-MR01. GFP expressing cells were FACS sorted before RNA isolation and gene expression measurements using QPCR."}, "[5]": {"tested_on": "hepatitis B virus (HBV)", "experiment": "HBV infection and replication in transduced hESC-derived hepatocytes (viral genome QPCR)", "format": "cell-based", "description": "FIG. 8 is a bar graph showing that HBV infects and replicates in human embryonic stem cell-derived hepatocytes. Number of copies of the HBV genome is reported for human embryonic stem cell-derived hepatocytes transduced with mir-122 infected with HBV (es heps with miRNA), positive control (human heps), and negative controls (hepg2). The copy numbers were calculated by QPCR. QPCR standard curve was prepared by serial dilution of LJ144, a construct that contains the whole viral genome. Both LJ144 and QPCR primers were disclosed by Watanabe et al. (PNAS 2007 104 (24)).\nThe copy numbers were calculated by QPCR. QPCR standard curve was prepared by serial dilution of LJ144, a construct that contains the whole viral genome. Both LJ144 and QPCR primers were disclosed by Watanabe et al. (PNAS 2007 104 (24)). […]\nInfected cells were lysed at 6 days post-infection and treated with micrococcal nuclease. […] QPCR was performed to quantify the viral genomes present in the isolated DNA using the QPCR primers disclosed by Watanabe et al. (PNAS 2007 104 (24)). […]\nInfectious HBV virions were concentrated from media of HepAD38 cells (Ladner et al. 1997) by PEG 8000 precipitation followed by centrifugation. […] Viral genome copy numbers were quantified by QPCR using primers previously published (see Watanabe et al. 2007). […]"}, "[6]": {"tested_on": "hESC derived hepatocytes", "experiment": "QPCR of liver genes in hESC derived hepatocytes transduced with let-7c alone or with mir-122", "format": "cell-based, human", "conditions": "GAPDH normalized, versus non-transduced hESC derived hepatocytes", "description": "(§1) Expression of albumin was also measured in HepG2, a human hepatoma cell line (hepg2). Expression was measured by quantitative PCR. Indicated expression levels (on the Y axis) are GAPDH normalized gene expression values called RQ values (relative quantity values), with HepG2 expression assigned a relative value of 1. Error bars indicate RQ min and RQ max values calculated on 1 standard deviation. All RQ, RQ min and RQ max values were calculated with ViiA7 software on Applied Biosystems QPCR system.\nas §1, with “CYP7A1” for “albumin”\nas §1, with “CYP3A4” for “albumin”\nas §1, with “AFP” for “albumin”\nExpression of AFP was also measured in HepG2, a human hepatoma cell line (hepg2). Expression was measured by quantitative PCR."}},
  "note": "“Also recorded” adds a separate entry of the source.",
  "data": [
    {"molecule": "COc1ccc2[nH]c([S+]([O-])Cc3ncc(C)c(OC)c3C)nc2c1", "note": "(centres unmarked) [omeprazole]", "values": [
      {"measurement": "induction of CYP1A2 upon drug challenge", "setting": "[1]; hESC-derived hepatocytes transduced with both mir-122 and let-7c, versus non-drug treated (ND) cells", "value": "strongly induced; also recorded: induced the expression"},
      {"measurement": "induction of CYP1A2 upon drug challenge", "setting": "[1]; hESC-derived hepatocytes with let-7c alone, no concurrent mir-122", "value": "did not elicit induction"},
      {"measurement": "expression of CYP1A2 upon addition of drug", "setting": "[1]; mir-122 transduced hES cell-derived hepatocytes, 100 μM for 3 days", "value": "substantially up-regulated"}
    ]},
    {"molecule": "CO[C@H]1/C=C/O[C@@]2(C)Oc3c(C)c(O)c4c(O)c(c(/C=N/N5CCN(C)CC5)c(O)c4c3C2=O)NC(=O)/C(C)=C\\C=C\\[C@H](C)[C@H](O)[C@@H](C)[C@@H](O)[C@@H](C)[C@H](OC(C)=O)[C@@H]1C", "note": "[rifampicin]", "values": [
      {"measurement": "efficiency of metabolism to 25-des acetyl rifampin", "setting": "[2]", "value": "comparable to primary human hepatocytes"}
    ]},
    {"molecule": "B1", "values": [
      {"measurement": "expression of functional genes (quantitative PCR)", "setting": "[3]; GFP positive FACS sorted hES cell-derived hepatocytes expressing miR-122", "value": "significant up-regulation"},
      {"measurement": "expression of functional genes (alb, tat, CYP1A2, CYP7A1, CYP3A4, aat) compared with primary hepatocytes", "setting": "[3]; QRT PCR, transduced mature hepatocytes versus human primary hepatocytes", "value": "equal or greater expression than in primary hepatocytes"},
      {"measurement": "transduction efficiency", "setting": "[3]; lentiviral transduction, GFP positive cells", "value": "~5", "unit": "%"},
      {"measurement": "alpha-feto protein expression", "setting": "[3]; mir-122 expressing hESC-derived hepatocytes", "value": "not down-regulated"},
      {"measurement": "CYP gene expression compared with fresh hepatocytes (day 0)", "setting": "[4]; mir-122 expressing primary hepatocytes in culture", "value": "equal or greater amount"},
      {"measurement": "mRNA levels of functional genes that decreased in control culture", "setting": "[4]; primary hepatocytes cultured 9 days or more, overexpressing mir-122", "value": "regained their expression"},
      {"measurement": "HBV genomes present per well", "setting": "[5]; mir-122 transduced hESC-derived hepatocytes, 6 days post-infection", "value": "presence of HBV genomes"}
    ]},
    {"molecule": "B2", "values": [
      {"measurement": "productive infection by HBV (relative number of copies of the HBV genome)", "setting": "[5]; transduced versus non-transduced hESC-derived hepatocytes, seventh day after infection", "value": "significantly down-regulated"},
      {"measurement": "AFP (alpha-feto protein) expression", "setting": "[6]", "value": "down-regulated"},
      {"measurement": "CYP1A2 expression", "setting": "[6]", "value": "up-regulated"},
      {"measurement": "CYP3A4 expression", "setting": "[6]", "value": "up-regulated"},
      {"measurement": "CYP7A1 expression", "setting": "[6]", "value": "up-regulated"},
      {"measurement": "albumin expression", "setting": "[6]", "value": "up-regulated"}
    ]}
  ]
}
